According to publication PMC8570598:

Biological target: Rat tail collagen-I (polymerized fibrillar collagen type I) (rat) (UniProt P02454)
Test: FRAP

UniProt P02454, sequence (P02454 152-1207, chain 1 of 2): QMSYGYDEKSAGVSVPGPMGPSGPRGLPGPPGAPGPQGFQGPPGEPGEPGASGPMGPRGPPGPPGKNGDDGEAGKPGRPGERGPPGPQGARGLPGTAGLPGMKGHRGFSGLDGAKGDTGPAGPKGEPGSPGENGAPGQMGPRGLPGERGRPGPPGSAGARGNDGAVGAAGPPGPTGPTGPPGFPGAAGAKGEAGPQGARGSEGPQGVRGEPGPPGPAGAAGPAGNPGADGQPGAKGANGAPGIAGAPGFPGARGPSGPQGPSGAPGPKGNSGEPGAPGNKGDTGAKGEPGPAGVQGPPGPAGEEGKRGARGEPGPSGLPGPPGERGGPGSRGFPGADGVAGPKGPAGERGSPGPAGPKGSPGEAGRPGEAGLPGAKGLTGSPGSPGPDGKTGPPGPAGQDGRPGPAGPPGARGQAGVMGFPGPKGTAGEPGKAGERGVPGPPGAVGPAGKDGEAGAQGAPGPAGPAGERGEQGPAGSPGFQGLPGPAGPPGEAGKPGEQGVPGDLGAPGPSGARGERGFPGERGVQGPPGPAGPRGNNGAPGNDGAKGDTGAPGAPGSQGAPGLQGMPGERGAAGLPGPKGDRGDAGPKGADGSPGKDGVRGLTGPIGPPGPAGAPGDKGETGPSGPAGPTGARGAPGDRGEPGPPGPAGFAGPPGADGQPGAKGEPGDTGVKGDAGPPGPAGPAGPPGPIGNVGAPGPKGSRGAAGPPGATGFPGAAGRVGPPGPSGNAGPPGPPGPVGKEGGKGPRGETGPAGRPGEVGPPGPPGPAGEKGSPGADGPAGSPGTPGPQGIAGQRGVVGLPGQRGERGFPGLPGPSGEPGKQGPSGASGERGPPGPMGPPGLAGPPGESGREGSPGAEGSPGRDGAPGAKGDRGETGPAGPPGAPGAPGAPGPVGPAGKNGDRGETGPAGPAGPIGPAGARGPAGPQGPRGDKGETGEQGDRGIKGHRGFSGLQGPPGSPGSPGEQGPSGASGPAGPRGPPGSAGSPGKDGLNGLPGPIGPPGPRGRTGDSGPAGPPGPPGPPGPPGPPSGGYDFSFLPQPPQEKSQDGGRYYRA
UniProt P02454, sequence (P02466 86-1125, chain 2 of 2, further chain): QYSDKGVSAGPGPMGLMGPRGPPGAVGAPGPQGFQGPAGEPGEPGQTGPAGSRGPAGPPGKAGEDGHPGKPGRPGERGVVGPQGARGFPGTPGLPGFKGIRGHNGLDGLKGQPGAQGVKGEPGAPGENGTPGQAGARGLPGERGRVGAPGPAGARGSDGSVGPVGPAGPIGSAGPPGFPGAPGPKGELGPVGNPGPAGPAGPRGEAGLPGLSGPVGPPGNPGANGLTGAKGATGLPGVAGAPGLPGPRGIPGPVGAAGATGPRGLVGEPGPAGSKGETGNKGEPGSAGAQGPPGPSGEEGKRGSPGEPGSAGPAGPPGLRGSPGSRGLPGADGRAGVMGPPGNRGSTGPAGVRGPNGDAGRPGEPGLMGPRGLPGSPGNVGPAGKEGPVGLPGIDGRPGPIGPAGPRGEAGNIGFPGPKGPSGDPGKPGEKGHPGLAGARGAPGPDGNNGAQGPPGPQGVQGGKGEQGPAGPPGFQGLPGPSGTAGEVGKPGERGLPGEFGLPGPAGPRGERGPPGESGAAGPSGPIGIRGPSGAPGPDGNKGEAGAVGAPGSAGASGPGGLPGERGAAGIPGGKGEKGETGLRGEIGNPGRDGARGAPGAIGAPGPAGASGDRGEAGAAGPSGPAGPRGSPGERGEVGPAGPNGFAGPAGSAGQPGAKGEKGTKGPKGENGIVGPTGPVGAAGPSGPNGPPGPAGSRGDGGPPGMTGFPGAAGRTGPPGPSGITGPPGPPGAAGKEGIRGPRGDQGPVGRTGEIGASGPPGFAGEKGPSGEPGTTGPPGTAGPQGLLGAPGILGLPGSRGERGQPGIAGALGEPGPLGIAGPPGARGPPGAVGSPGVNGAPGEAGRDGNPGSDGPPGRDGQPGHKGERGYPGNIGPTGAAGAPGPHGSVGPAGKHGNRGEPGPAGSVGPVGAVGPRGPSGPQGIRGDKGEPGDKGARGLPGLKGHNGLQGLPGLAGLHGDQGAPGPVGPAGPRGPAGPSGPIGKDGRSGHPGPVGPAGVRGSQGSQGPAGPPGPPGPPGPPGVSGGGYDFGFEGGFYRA

Substance: Alexa488-labeled epidermal growth factor (EGF) (ligand)
- mobile fraction (FRAP, free Alexa488-EGF in the medium): 50%
